Test results reported in paper PMC12449053, “Cortolezzis Ylenia Formal analysis Investigation Methodology Department of Medicine, Laboratory of Biochemistry, University of Udine, 33100 Udine, Italy”.

Assays:
GST-hnRNPA1 [1] = biological target: T1, GST-hnRNPA1 (UniProt P09651 1-372); assay: EMSA; 50 mM KCl; bound at 1:1 ratio; EMSA: 50 mM Tris-HCl pH 7.4, 50 mM KCl, 1 mM EDTA, 1 mM Na3VO4, 5 mM NaF, 1 mM DTT, 8% glycerol, 25 C, 30 nM RNA; ITC: 10 mM KPi, 50 mM KCl, 25 C, 8 uM UP1; details: protein: recombinant; tags: GST (N-terminal, pGEX4T1); label: Cy5.5 5'; rG4
GST-hnRNPA1 [2] = biological target: T1, GST-hnRNPA1; assay: EMSA; 10-fold molar excess of protein; EMSA: 50 mM Tris-HCl pH 7.4, 50 mM KCl, 1 mM EDTA, 1 mM Na3VO4, 5 mM NaF, 1 mM DTT, 8% glycerol, 25 C, 30 nM RNA; ITC: 10 mM KPi, 50 mM KCl, 25 C, 8 uM UP1; details: protein: recombinant; tags: GST (N-terminal, pGEX4T1); unable to form rG4
UP1 = UP1 (UniProt P09651 1-196); assay: ITC; 50 mM KCl; one-site fit, Kd not in material; EMSA: 50 mM Tris-HCl pH 7.4, 50 mM KCl, 1 mM EDTA, 1 mM Na3VO4, 5 mM NaF, 1 mM DTT, 8% glycerol, 25 C, 30 nM RNA; ITC: 10 mM KPi, 50 mM KCl, 25 C, 8 uM UP1; details: protein: recombinant; tags: none (GST removed by PreScission); rG4, two stacked G-tetrads
UP1, sequence (P09651 1-196): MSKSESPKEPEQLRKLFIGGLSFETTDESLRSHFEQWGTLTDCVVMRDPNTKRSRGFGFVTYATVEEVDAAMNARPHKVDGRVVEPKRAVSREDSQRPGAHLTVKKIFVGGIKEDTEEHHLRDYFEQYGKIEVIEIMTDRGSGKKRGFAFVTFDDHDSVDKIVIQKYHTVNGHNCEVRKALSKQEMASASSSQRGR

T1 sequence (P09651 whole entry): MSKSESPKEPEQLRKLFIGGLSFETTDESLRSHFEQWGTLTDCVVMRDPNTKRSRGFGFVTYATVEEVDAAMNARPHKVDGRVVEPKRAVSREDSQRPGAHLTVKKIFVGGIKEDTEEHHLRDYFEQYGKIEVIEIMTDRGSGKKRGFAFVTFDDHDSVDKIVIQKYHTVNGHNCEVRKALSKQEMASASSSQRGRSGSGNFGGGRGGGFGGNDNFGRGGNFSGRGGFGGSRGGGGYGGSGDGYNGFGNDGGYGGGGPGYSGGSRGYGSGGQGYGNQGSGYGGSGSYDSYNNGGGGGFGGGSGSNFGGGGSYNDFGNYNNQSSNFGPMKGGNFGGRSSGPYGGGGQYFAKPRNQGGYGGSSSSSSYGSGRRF

## GCAGCGGCGGCGGCAGUGGCGGCGGCGAAGGUGGCGGCGGC (structured_RNA) [41-mer 5'UTR (utr-c + utr-z)]
GST-hnRNPA1 [1]
  binding result: binds

## GCAGCGCCAGCCGCAGUCGCGUCCGCGAACGUAGCCGCCGC (ssRNA) [41-mer 5'UTRmut]
GST-hnRNPA1 [2]
  binding result: no binding

## GGUGGCGGCGG (structured_RNA) [utr-c]
UP1
  binding result: binds
